Measurements reported in the MegaScale stability set (Tsuboyama et al. 2023).

B1: EHEE_rd4_0086 (parent)
chain: EIHIRTNGEEQARKVYKMLAKRNYDVKIEQHNGQWVVTAS

Variants of: B1
Assay: folding stability dG (cDNA display proteolysis); higher = more stable
Details: PBS, room temperature

Folding stability dG [kcal/mol] of substitutions, site by site:
W35: V -0.525 | Y 0.915
G8: V 2.06 | W 2.02 | L 2.05 | Y 2.22 | R 2.17 | A 1.79 | M 1.88 | F 2.22 | S 3.25 | Q 1.94 | E 2.06 | I 2.21 | N 2.94
A20: S 1.78 | I 2.17 | E 1.52 | T 1.75 | L 2.51 | Y 1.55 | G 0.826 | M 2.21 | V 2.18
N23: V 0.904 | T 0.87 | H 2.35 | L 1.74 | M 1.89 | C 2.9 | Q 1.67
L19: W 1.02 | V -0.352 | I 0.108 | F 1.72
K21: L 2.06 | D 2.13 | P -0.238 | T 1.67 | Y 1.61 | I 1.82 | Q 2.1 | S 2.09 | M 2.15
Y16: I 0.973 | T 0.377 | G 1.88 | F 1.93 | V 1.23 | L 1.55 | Q 1.38 | E 0.776 | K 1.07 | A 2.76
K14: Y 2.02 | E 1.68 | G 0.786 | T 1.32 | F 1.89 | N 1.29 | V 1.42 | D 1.21
N32: L 1.51 | I 0.67 | Q 1.65 | W 1.12 | K 1.54 | E 1.76 | V 0.762 | Y 1.38 | G 1.86 | M 1.64 | H 1.55 | S 1.38 | F 1.45 | A 1.7 | T 0.816
M18: Q 1.5 | Y 2.37 | V 1.48 | D 1.08 | L 1.82 | S 1.35
Q30: L 1.93 | G 0.999 | A 1.33 | E 1.85 | D 1.07 | S 1.58 | W 1.8 | V 2.22 | P 0.717
V15: R 0.424 | W 2.43 | H 0.525 | T 0.624 | E -0.159 | C 2.6 | K 0.551
T38: S 1.51 | K 1.71 | N 0.617 | V 2.25 | E 0.543 | L 1.75 | F 1.72
V37: M 0.044 | F -0.019 | I 1.79 | W -0.025
A39: N 0.642 | M 1.98 | F 2.32 | G 1.44 | T 1.41 | L 2.36 | W 2.2
I4: D -0.257 | K -0.031 | T -0.094 | A 0.01 | F 2.16 | P -0.436 | N -0.203 | L 1.12 | H 0.442 | E -0.06
E29: R 1.68 | N 1.57 | G 1.48 | F 2.44 | I 1.97 | V 1.98 | T 2.02 | H 1.78
V26: S -0.013 | M 0.338 | G -0.027 | P 1.02 | F -0.182 | L 0.829 | A 1.1
I28: W 0.131 | R -0.747 | T -0.114 | S -0.437 | F 0.516
R13: F 1.5 | K 1.92 | G 0.376 | M 1.79 | A 1.03 | D 0.502 | C 2.74 | W 2.33 | Q 1.47 | H 1.32 | Y 1.85
Y24: Q 0.902 | A 1.08 | L 1.69 | V 1.29 | G 0.656 | T 0.886 | N 0.737 | D 0.514 | F 1.93 | E 0.458
K27: F 1.33 | N 1.16 | D 0.311 | T 1.68 | S 1.5 | Q 1.44 | Y 1.45 | A 1.26 | V 1.45 | M 1.32 | W 1.52 | R 1.95
N7: Q 1.85 | T 1.99 | H 1.73 | P 1.32 | V 1.66
R22: F 2.04 | S 1.37 | A 1.84 | L 2.45 | V 1.01 | N 1.45 | H 1.86 | M 2.32 | T 1.16 | K 1.85
E9: T 0.873 | L 2.44 | A 1.53 | I 2.26 | S 1.14 | Q 1.52 | K 1.69
G33: M 0.969 | E 1.21 | S 1.08 | D 1.35 | I 0.069 | N 1.24 | R 0.801 | W 0.42 | L 0.714
H3: Q 2.06 | G 0.661 | D 0.614 | M 2.23 | W 2.12 | E 2 | K 2.26 | L 2.14 | Y 2.36
S40: Y 1.96 | R 2.25 | L 1.78 | F 2.04 | D 0.806 | W 2.2 | G 1.33
K17: D 2.06 | L 2.08 | E 2.37 | S 1.77 | Q 2.1 | V 1.91 | H 1.83 | A 2.25 | T 1.91 | P -0.583
D25: E 1.91 | T 2.25 | Y 2.09 | I 2.34 | G 1.22 | W 1.89 | P 1.08 | V 2.31 | N 2.27
V36: S 1.23 | D 0.384 | L 1.78 | I 2.15 | Y 2.13 | W 2.3 | H 1.56 | R 1.07 | G 0.463 | N 0.466
I2: K 0.769 | S 0.144 | D 0.01 | R 0.978 | F 2.2 | Y 1.65 | G -0.001 | H 0.983 | N 0.024 | A 0.327 | M 1.38
R5: G 0.692 | F 2.36 | L 2.08 | P 1.19 | H 1.96 | V 2.32 | Y 2.52 | K 1.75
H31: A 1.67 | W 2.15 | C 2.09 | R 1.98 | Q 1.95 | T 1.71 | L 2.12 | D 1.78
E1: Y 2.5 | T 2.31 | N 1.8 | I 2.48 | L 2.37 | V 2.47 | G 1.84 | S 2.08 | H 2.46
E10: N 1.72 | W 2.06 | K 2.15 | F 1.73 | I 1.84 | V 1.81 | Y 1.81 | M 1.89 | D 1.74
A12: S 0.335 | G 0.134 | I 0.115 | K -0.265
Q11: R 1.51 | F 2.05 | A 1.89 | T 1.59 | D 1.67 | S 1.55 | G 1.02 | W 2.1 | E 2.1 | I 1.84
Q34: H 2.04 | D 1.51 | I 2.27 | K 1.61 | E 1.87 | L 1.86 | M 2.09 | W 2.31 | N 1.52
T6: P 0.496 | G 0.494 | F 3.03 | K 0.706 | L 2.35 | W 0.843 | N 0.438 | A 1.73 | V 2.55 | E 0.299
